Measurements from US20210063414A1, “METHODS FOR PREVENTING AND/OR TREATING BONE LOSS CONDITIONS BY MODULATING IRISIN” (Dana-Farber Cancer Institute, Inc., priority 2018, published 2021).

Experiments:
Assay in all cases: Crosslinking/co-immunoprecipitation/mass spectrometry (TMT quantitative proteomics) to identify irisin receptors
Type in all cases: binding
[1] = molecular target: T1, MLO-Y4 cell surface proteins (Mus musculus, UniProt Q66GT5); conditions: co-precipitated protein Ptpmt1 (PTPM1_MOUSE)
T1 construct: endogenous in cells; host or cells: MLO-Y4
T1 sequence (Q66GT5 32-193): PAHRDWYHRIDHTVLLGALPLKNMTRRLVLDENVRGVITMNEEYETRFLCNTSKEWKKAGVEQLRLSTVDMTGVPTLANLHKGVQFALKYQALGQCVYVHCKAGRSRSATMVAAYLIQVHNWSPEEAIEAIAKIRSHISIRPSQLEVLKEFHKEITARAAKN
Description: (§1) MLO-Y4 cells were seeded on 30×150 mm type-I collagen coated dishes as described in cell culture experiment. At 60% cell density, medium was switched to FreeStyle™ 293 Expression medium. After 4 hours incubation, the cells were chilled on ice for 10 minutes, followed by treatment of 10 nM his-tag irisin or his-tag adipsin for 20 minutes. The cells were then incubated with 1.5 mM DTSSP for 30 minutes on ice to do cross-linking, after washing with 15 ml cold PBS twice. The cross-linking was quenched by addition of a final concentration of 20 mM Tris-pH 7.5. The cells were then harvested and homogenized in 1 ml RIPA buffer containing proteaseinhibitor cocktailand phosphatase-inhibitor cocktail. Whole-cell lysates were homogenized by 10 times passages through a 22G needle fitted to a 3 ml syringe. Homogenized samples were rotated gently in cold room for 20 minutes followed by 15,000×g centrifugation for 10 minutes. After addition of a final concentration of 10 mM imidazole, supernatants were incubated with 100 μl Ni-NTA agarose for 1 hour. After centrifugation at 500×g for 1 minute, the supernatants were aspirated and 1 ml cold RIPA buffer containing 10 mM imidazole were added to the agarose. After 10 minutes rotation in cold room, the supernatants were aspirated and 1 ml cold RIPA buffer containing 30 mM imidazole were added to the agarose. After repeating the washing 3 times, 0.8 ml RIPA buffer containing 250 mM imidazole was added and the agarose was gently rotated in a cold room for 20 minutes. After centrifugation at 1000×g for 2 minutes, the supernatants were transferred to 1.5 ml tube and incubated with 100 μl 0.2% sodium deoxycholate and 100 μl 10% trichloroacetic acid in ice for 1 hour. After centrifugation at 12,000×g for 10 minutes at 4° C., the supernatants were removed and 1 ml cold acetone was added to the pellets followed by vortexing for 10 seconds. After one more washing with cold acetone, the pellets were dried at 37° C., and 39 μl PBS and 13 μl 4×NuPAGE LDS were added to the pellets with a final concentration of 5 mM DTT. Solubilized proteins were incubated at 65° C. for 20 minutes followed by incubation with a final concentration of 14 mM iodoacetamide for 45 minutes in the dark. 38 μl samples were loaded to 4-12% gradient SDS-PAGE for separation followed by Coomassie Blue staining. The gels were submitted to quantitative proteomics.
(§2) For in-gel digestions, gels were stained with Coomassie Blue and were excised into 8 equal segments for control and irisin lanes. Gel pieces were destained and dehydrated with 100% acetonitrile, vacuumed dried, and digested in 25 mM HEPES (pH 8.5) with 500 ng sequencing grade trypsin (Promega) and incubated for an overnight at 37° C. (Shevchenko et al. (1996) Anal. Chem. 68:850-858). Digests were treated with 1% formic acid and purified using C18 Stage-Tips as previously described (Rappsilber et al. (2007) Nat. Protoc. 2:1896-1906). Peptides were eluted with 70% acetonitrile and 1% formic acid, then dried using a speedvac. Isobaric labeling of digested peptides was accomplished using 6-plex tandem mass tag (TMT) reagents (Thermo Fisher Scientific, Rockford, Ill.). Reagents, 5.0 mg, were dissolved in 252 μl acetonitrile (ACN) and 5 μl of the solution was added to the digested peptides dissolved in 25 μl of 200 mM HEPES, pH 8.5. After 1 hour at room temperature, the reaction was quenched by adding 1 μl of 5% hydroxylamine. Labeled peptides were combined and acidified prior to C18 Stage-Tips desalting.
(§3) All LC-MS/MS experiments were performed on an Orbitrap Fusion™ Lumos mass spectrometer (Thermo Fisher Scientific, San Jose, Calif., USA) coupled with a Proxeon EASY-nLC™ 1200 LC pump (Thermo Fisher Scientific). Peptides were separated on a 100 μm inner diameter microcapillary column packed with 35 cm of Accucore™ C18 resin (1.8 μm, 100 Å, Thermo Fisher Scientific). […]

[2] = molecular target: T2, MLO-Y4 cell surface proteins (Mus musculus, UniProt P60843); conditions: co-precipitated protein Eif4a1 (IF4A1_MOUSE)
T2 construct: endogenous in cells; host or cells: MLO-Y4
Description: as §1, §2, §3

[3] = molecular target: T3, MLO-Y4 cell surface proteins (Mus musculus, UniProt P97350); conditions: co-precipitated protein Pkp1 (PKP1_MOUSE)
T3 construct: endogenous in cells; host or cells: MLO-Y4
T3 sequence (P97350 1-728): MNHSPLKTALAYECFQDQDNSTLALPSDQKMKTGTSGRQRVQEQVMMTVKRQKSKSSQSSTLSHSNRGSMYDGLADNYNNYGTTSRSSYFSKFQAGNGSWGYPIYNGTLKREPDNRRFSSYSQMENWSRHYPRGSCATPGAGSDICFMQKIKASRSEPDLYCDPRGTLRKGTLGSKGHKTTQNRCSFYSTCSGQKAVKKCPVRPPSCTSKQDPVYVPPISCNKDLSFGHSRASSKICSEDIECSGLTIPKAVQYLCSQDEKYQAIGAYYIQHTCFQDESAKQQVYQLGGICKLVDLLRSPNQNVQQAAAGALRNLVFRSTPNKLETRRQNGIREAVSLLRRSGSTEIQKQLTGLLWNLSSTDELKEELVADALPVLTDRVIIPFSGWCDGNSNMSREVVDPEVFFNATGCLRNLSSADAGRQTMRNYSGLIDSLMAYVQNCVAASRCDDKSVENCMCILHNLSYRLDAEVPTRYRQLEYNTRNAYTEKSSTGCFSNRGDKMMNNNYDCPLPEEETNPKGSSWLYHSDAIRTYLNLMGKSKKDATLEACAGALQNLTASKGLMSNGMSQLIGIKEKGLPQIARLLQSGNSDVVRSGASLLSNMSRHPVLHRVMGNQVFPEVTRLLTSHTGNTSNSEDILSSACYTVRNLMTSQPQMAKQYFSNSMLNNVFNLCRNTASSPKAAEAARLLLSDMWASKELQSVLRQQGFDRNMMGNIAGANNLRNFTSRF
Description: as §1, §2, §3

[4] = molecular target: T4, MLO-Y4 cell surface proteins (Mus musculus, UniProt P61161); conditions: co-precipitated protein Actr2 (ARP2_MOUSE)
T4 construct: endogenous in cells; host or cells: MLO-Y4
Description: as §1, §2, §3

T2 sequence (P60843 whole entry): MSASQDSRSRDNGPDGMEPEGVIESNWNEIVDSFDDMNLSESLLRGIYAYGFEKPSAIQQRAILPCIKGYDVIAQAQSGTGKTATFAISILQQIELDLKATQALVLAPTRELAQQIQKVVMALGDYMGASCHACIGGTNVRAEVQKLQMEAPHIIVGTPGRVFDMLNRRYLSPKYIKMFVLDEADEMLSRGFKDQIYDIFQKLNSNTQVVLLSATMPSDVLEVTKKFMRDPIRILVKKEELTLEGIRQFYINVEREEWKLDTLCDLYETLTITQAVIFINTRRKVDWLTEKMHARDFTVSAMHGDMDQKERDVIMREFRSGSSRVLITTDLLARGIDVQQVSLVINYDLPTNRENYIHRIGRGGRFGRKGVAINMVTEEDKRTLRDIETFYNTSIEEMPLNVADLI

B1: irisin: secreted cleaved form of FNDC5; recombinant human/mouse irisin with C-terminal his tag produced in HEK293 cells (protein)
chain: DSPSAPVNVTVRHLKANSAVVSWDVLEDEVVIGFAISQQKKDVRMLRFIQEVNTTTRSCALWDLEEDTEYIVHVQAISIQGQSPASEPVLFKTPREAEKMASKNKDEVTMKE
modifications: left off: small tags and cut ends
notes: secreted cleaved form of FNDC5; recombinant human/mouse irisin with C-terminal his tag produced in HEK293 cells
TMT signal-to-noise ratio [1]: 51.6065
irisin/adipsin TMT signal-to-noise ratio [1]: 0.559
TMT signal-to-noise ratio [2]: 17.0483
irisin/adipsin TMT signal-to-noise ratio [2]: 0.125
TMT signal-to-noise ratio [3]: 8.015
irisin/adipsin TMT signal-to-noise ratio [3]: 0.082
TMT signal-to-noise ratio [4]: 84.7644
irisin/adipsin TMT signal-to-noise ratio [4]: 0.552
